B1: CD3 × CD33-BspAb85 (bispecific antibody)
scFv-Fc: EVQLVESGGGLVKPGGSLRLSCAASGFTFSSYSMNWVRQAPGKCLEWVSSISRSSGYIFYADSVKGRFTISRDNAKNSLYLQMNSLRAEDTAVYYCVRERVGAGFDYWGQGTLVTVSSGGGGSGGGGSGGGGSGGGGSNFMLTQPHSVSESPGKTVAISCTRSSGSIASNYVQWYQQRPGSSPTAVIYEDNQRPSGVPDRFSGSIDSSSNSAFLTISGLKTEDEADYYCQSYDSSNRVFGCGTKLTVLGGGGSDKTHTCPPCPAPEFEGGPSVFLFPPKPKDTLMISRTPEVTCVVVDVSHEDPEVKFNWYVDGVEVHNAKTKPREEQYNSTYRVVSVLTVLHQDWLNGKEYKCKVSNKALPASIEKTISKAKGQPREPQVYTLPPCREEMTKNQVSLWCLVKGFYPSDIAVEWESNGQPENNYKTTPPVLDSDGSFFLYSKLTVDKSRWQQGNVFSCSVMHEALHNHYTQKSLSLSPGK
heavy: EVQLVQSGAEVKKPGSSVKVSCKASGYTITDSNIHWVRQAPGQSLEWIGYIYPYNGGTDYNQKFKNRATLTVDNPTNTAYMELSSLRSEDTAFYYCVNGNPWLAYWGQGTLVTVSSASTKGPSVFPLAPSSKSTSGGTAALGCLVKDYFPEPVTVSWNSGALTSGVHTFPAVLQSSGLYSLSSVVTVPSSSLGTQTYICNVNHKPSNTKVDKRVEPKSCDKTHTCPPCPAPEFEGGPSVFLFPPKPKDTLMISRTPEVTCVVVDVSHEDPEVKFNWYVDGVEVHNAKTKPREEQYNSTYRVVSVLTVLHQDWLNGKEYKCKVSNKALPASIEKTISKAKGQPREPQVCTLPPSREEMTKNQVSLSCAVKGFYPSDIAVEWESNGQPENNYKTTPPVLDSDGSFFLVSKLTVDKSRWQQGNVFSCSVMHEALHNRFTQKSLSLSPGK
light: DIQLTQSPSTLSASVGDRVTITCRASESLDNYGIRFLTWFQQKPGKAPKLLMYAASNQGSGVPSRFSGSGSGTEFTLTISSLQPDDFATYYCQQTKEVPWSFGQGTKVEVKRTVAAPSVFIFPPSDEQLKSGTASVVCLLNNFYPREAKVQWKVDNALQSGNSQESVTEQDSKDSTYSLSSTLTLSKADYEKHKVYACEVTHQGLSSPVTKSFNRGEC
notes: KiH heterodimer
B2: CD3 × CD33-BspAb86 (bispecific antibody)
scFv-Fc: EVQLVESGGGLVKPGGSLRLSCAASGFTFSSYSMNWVRQAPGKCLEWVSSISRSGTYIYYADSVKGRFTISRDNAKNSLYLQMNSLRAEDTAVYYCARERWELLYFDYWGQGTLVTVSSGGGGSGGGGSGGGGSGGGGSQTVVTQEPSLTVSPGGTVTLTCASSTGAVTSGYYPNWFQQKPGQAPRALIYSTSNKHSWTPARFSGSLLGGKAALTLSGVQPEDEAEYYCLLYYGGAYVFGCGTKVTVLGGGGSDKTHTCPPCPAPEFEGGPSVFLFPPKPKDTLMISRTPEVTCVVVDVSHEDPEVKFNWYVDGVEVHNAKTKPREEQYNSTYRVVSVLTVLHQDWLNGKEYKCKVSNKALPASIEKTISKAKGQPREPQVYTLPPCREEMTKNQVSLWCLVKGFYPSDIAVEWESNGQPENNYKTTPPVLDSDGSFFLYSKLTVDKSRWQQGNVFSCSVMHEALHNHYTQKSLSLSPGK
heavy: B1 heavy
light: B1 light
notes: KiH heterodimer
B3: CD3 × CD33-BspAb89 (bispecific antibody)
scFv-Fc: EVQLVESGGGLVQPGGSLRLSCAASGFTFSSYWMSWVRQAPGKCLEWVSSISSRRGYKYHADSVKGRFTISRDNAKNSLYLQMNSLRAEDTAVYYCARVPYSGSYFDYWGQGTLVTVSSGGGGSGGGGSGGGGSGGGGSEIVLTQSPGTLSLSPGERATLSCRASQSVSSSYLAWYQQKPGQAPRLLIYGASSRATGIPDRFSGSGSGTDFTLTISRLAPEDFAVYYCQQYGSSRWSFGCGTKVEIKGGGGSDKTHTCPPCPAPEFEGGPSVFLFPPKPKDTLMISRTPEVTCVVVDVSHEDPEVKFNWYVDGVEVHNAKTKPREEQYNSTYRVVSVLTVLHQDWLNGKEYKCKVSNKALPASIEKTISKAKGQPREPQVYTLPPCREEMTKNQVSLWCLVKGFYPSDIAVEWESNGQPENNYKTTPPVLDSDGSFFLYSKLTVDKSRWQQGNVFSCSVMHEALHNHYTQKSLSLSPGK
heavy: B1 heavy
light: B1 light
notes: KiH heterodimer
B4: CD3 × CD33-BspAb90 (bispecific antibody)
scFv-Fc: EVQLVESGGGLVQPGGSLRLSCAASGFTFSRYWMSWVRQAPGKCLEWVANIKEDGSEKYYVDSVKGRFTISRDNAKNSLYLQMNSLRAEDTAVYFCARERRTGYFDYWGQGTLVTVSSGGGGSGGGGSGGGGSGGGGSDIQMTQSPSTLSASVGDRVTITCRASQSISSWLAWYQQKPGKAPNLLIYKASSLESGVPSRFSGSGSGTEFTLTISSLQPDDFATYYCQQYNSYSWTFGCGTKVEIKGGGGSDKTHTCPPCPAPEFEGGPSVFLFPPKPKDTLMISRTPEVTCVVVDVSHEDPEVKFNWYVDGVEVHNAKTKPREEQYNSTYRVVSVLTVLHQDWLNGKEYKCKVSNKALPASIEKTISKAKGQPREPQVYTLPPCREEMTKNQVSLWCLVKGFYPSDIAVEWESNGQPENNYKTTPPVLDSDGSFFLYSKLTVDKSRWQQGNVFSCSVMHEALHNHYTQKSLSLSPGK
heavy: B1 heavy
light: B1 light
notes: KiH heterodimer
B5: CD3 × CD33-BspAb91 (bispecific antibody)
chain 1: DIQMTQSPSTLSASVGDRVTITCRASQSISSWLAWFQQKTGKAPKLLIYKASSLESGVPSRFSGSGSGTEFTLTISSLQPDDFATYYCQQYISYSWTFGCGTKVEIKGGGGSGGGGSGGGGSGGGGSEVQLVESGGGLVQRGGSLRLSCAASGFTFSNYWMSWVRQAPGKCLEWVANIKEDGSEKYYVDSVKGRFTISRDNAKHSLYLQMNSLRAEDTAVYYCARERRTGYFDYWGQGTLVTVSSDKTHTCPPCPAPEFEGGPSVFLFPPKPKDTLMISRTPEVTCVVVDVSHEDPEVKFNWYVDGVEVHNAKTKPREEQYNSTYRVVSVLTVLHQDWLNGKEYKCKVSNKALPASIEKTISKAKGQPREPQVYTLPPCREEMTKNQVSLWCLVKGFYPSDIAVEWESNGQPENNYKTTPPVLDSDGSFFLYSKLTVDKSRWQQGNVFSCSVMHEALHNHYTQKSLSLSPGK
chain 2: B1 heavy
chain 3: B1 light
B6: CD3 × CD33-BspAb93 (bispecific antibody)
chain 1: NFMLTQPHSVSESPGKTVTISCTRSSGSIASKYVQWYQQRPGSSPTTVIYEDNQRPSGVPDRFSGSIDSSSNSASLTISGLKTEDEADYYCQSYYSNNRVFGCGTKLTVLGGGGSGGGGSGGGGSGGGGSEVQLVESGGGLVQPGGSLRLSCAASGFTFSRYSMNWVRQAPGKCLEWVSYISRSSTTIYYADSVKGRFTISRDNAKNSLYLQMNSLRDEDAAVYYCARERWELLYFDYWGQGTLVTVSSDKTHTCPPCPAPEFEGGPSVFLFPPKPKDTLMISRTPEVTCVVVDVSHEDPEVKFNWYVDGVEVHNAKTKPREEQYNSTYRVVSVLTVLHQDWLNGKEYKCKVSNKALPASIEKTISKAKGQPREPQVYTLPPCREEMTKNQVSLWCLVKGFYPSDIAVEWESNGQPENNYKTTPPVLDSDGSFFLYSKLTVDKSRWQQGNVFSCSVMHEALHNHYTQKSLSLSPGK
chain 2: B1 heavy
chain 3: B1 light
B7: CD3 × CD33-BspAb94 (bispecific antibody)
chain 1: NFMLTQPHSVSESPGKTVTISCTRSSGSIASNYVQWYQQRPGSSPTTVIYEDNQRPSGVPDRFSGSIDSSSNSASLTISGLKTEDEADYYCQSYDSSNRVFGCGTKLTVLGGGGSGGGGSGGGGSGGGGSEVQLVESGGGLVKPGGSLRLSCAASGFTFSSYTMNWVRQAPGKCLEWVSSITTSSSYIYYADSVKGRFTISRDNAKNSLYLQMNSLRAEDTAVYYCARVTFDAFDIWGQGTMVTVSSDKTHTCPPCPAPEFEGGPSVFLFPPKPKDTLMISRTPEVTCVVVDVSHEDPEVKFNWYVDGVEVHNAKTKPREEQYNSTYRVVSVLTVLHQDWLNGKEYKCKVSNKALPASIEKTISKAKGQPREPQVYTLPPCREEMTKNQVSLWCLVKGFYPSDIAVEWESNGQPENNYKTTPPVLDSDGSFFLYSKLTVDKSRWQQGNVFSCSVMHEALHNHYTQKSLSLSPGK
chain 2: B1 heavy
chain 3: B1 light
B8: CD3 × CD33-BspAb95 (bispecific antibody)
chain 1: NFMLTQPHSVSESPGKTVTISCTRSSGSIASNYVQWYQQRPGSSPTTVIYEDNQRSSGVPDRFSGSIDSSSNSASLTISGLKTEDEADYYCQSYDRSNRVFGCGTKLTVLGGGGSGGGGSGGGGSGGGGSEVQLVESGGGLVKPGGSLRLSCSASGFTFSTYTMNWVRQAPGKCLEWVSSISKSSSYIYYTDSVKGRFTISRDNAKNSLYLQMNSLRAEDTAVYYCARERRTLAFDIWGQGTMVTVSSDKTHTCPPCPAPEFEGGPSVFLFPPKPKDTLMISRTPEVTCVVVDVSHEDPEVKFNWYVDGVEVHNAKTKPREEQYNSTYRVVSVLTVLHQDWLNGKEYKCKVSNKALPASIEKTISKAKGQPREPQVYTLPPCREEMTKNQVSLWCLVKGFYPSDIAVEWESNGQPENNYKTTPPVLDSDGSFFLYSKLTVDKSRWQQGNVFSCSVMHEALHNHYTQKSLSLSPGK
chain 2: B1 heavy
chain 3: B1 light

Target: T1, human CD3 (TCR/CD3 complex on the cell surface) (human, UniProt P07766 23-207; P04234 22-171; P09693 23-182)
T1 construct: whole, on cells; Native CD3 on human Pan-T cells or Jurkat wild-type cells; also called CD3 on Pan-T cells; CD3 on Jurkat WT cells
T1 sequence (P07766 23-207, chain 1 of 3): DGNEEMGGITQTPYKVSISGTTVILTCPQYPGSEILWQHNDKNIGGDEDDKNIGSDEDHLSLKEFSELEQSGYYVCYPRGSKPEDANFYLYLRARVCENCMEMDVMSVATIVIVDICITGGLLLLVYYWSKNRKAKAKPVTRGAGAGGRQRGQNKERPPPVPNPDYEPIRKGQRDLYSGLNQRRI
T1 sequence (P04234 22-171, chain 2 of 3): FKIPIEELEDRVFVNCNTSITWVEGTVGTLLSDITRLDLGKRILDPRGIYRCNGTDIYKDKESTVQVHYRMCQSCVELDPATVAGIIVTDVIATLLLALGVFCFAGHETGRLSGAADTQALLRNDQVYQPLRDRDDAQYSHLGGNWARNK
T1 sequence (P09693 23-182, chain 3 of 3): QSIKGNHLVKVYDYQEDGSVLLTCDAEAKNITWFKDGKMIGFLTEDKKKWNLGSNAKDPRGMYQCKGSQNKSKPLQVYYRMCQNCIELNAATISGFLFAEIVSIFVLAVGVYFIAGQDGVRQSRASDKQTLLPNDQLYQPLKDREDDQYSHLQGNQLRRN
Test: flow cytometry, Pan-T cells, 1 ug/mL

Binder	% Positive	gMFI
B1	99.4%	96000 gMFI
B2	35.2%	5410 gMFI
B3	0.6%	1830 gMFI
B4	83.8%	11600 gMFI
B5	94.6%	18500 gMFI
B6	98.2%	29600 gMFI
B7	2.6%	2050 gMFI
B8	99.7%	112000 gMFI

Target: T1, human CD3 (TCR/CD3 complex on the cell …)
Test: flow cytometry, Pan-T cells, 10 ug/mL

Binder	% Positive	gMFI
B1	99.7%	249000 gMFI
B2	92.4%	25400 gMFI
B3	1.7%	1960 gMFI
B4	98.1%	78400 gMFI
B5	99.4%	127000 gMFI
B6	99.8%	135000 gMFI
B7	4.4%	2600 gMFI
B8	99.8%	232000 gMFI

Target: T1, human CD3 (TCR/CD3 complex on the cell …)
Test: flow cytometry, Jurkat WT cells, 1 ug/mL

Binder	gMFI
B1	18900 gMFI
B2	3180 gMFI
B3	1840 gMFI
B4	4480 gMFI
B5	8110 gMFI
B6	16200 gMFI
B7	1830 gMFI
B8	33900 gMFI

Target: T1, human CD3 (TCR/CD3 complex on the cell …)
Test: flow cytometry, Jurkat WT cells, 10 ug/mL

Binder	gMFI
B1	32000 gMFI
B2	9550 gMFI
B3	1750 gMFI
B4	19400 gMFI
B5	31600 gMFI
B6	28400 gMFI
B7	2190 gMFI
B8	39500 gMFI

Target: T1, human CD3 (TCR/CD3 complex on the cell …)
Test: flow cytometry, Jurkat WT gMFI over Jurkat KO gMFI, 1 ug/mL

Binder	Jurkat WT/KO (Fold)
B1	6.2 fold
B2	1.4 fold
B3	0.8 fold
B4	1.9 fold
B5	3.7 fold
B6	5.6 fold
B7	0.8 fold
B8	10.5 fold

Target: T1, human CD3 (TCR/CD3 complex on the cell …)
Test: flow cytometry, Jurkat WT gMFI over Jurkat KO gMFI, 10 ug/mL

Binder	Jurkat WT/KO (Fold)
B1	9.9 fold
B2	3.9 fold
B3	0.9 fold
B4	7.5 fold
B5	10.4 fold
B6	9.5 fold
B7	1.1 fold
B8	12.5 fold

— patent US20260167721A1 (ABLEXIS, published 2026)
